Measurements from patent publication US20100285451A1.

Molecular target: Somatostatin 2 receptor-eYFP-α fusion (E. coli)
Test: cell-based or functional assay

Question: Which EC50, arrestin assay (β-galactosidase complementation of β-arrestin-ω + GPCR-eYFP-α) does the source give for “somatostatin-14 (from UniProt P61278 103-116) (peptide)” here?
Answer: 3 nM

Question: What about the EC50, internalization assay (β-galactosidase complementation of FYVE-ω + GPCR-eYFP-α) of the same substance?
Answer: 7 nM

Question: And the fold induction, internalization assay?
Answer: 3 fold
